Changes are numbered by the printed parent chain. Numbers in names are those of the source.
B1: full-length WzzBSF (natural protein)
chain: MRVENNNVSGQNHDPEQIDLIDLLVQLWRGKMTIIISVIVAIALAIGYLAVAKEKWTSTAIITQPDVGQIAGYNNAMNVIYGQAAPKVSDLQETLIGRFSSAFSALAETLDNQEEPEKLTIEPSVKNQQLPLTVSYVGQTAEGAQMKLAQYIQQVDDKVNQELEKDLKDNIALGRKNLQDSLRTQEVVAQEQKDLRIRQIQEALQYANQAQVTKPQVQQTEDVTQDTLFLLGSEALESMIKHEATRPLVFSPNYYQTRQNLLDIEKLKFDDLDIHAYRYVMKPTLPIRRDSPKKAITLILAVLLGGMVGAGIVLGRNALRNYNAK
notes: WzzBSF of Shigella flexneri, wzzSF open reading frame in pRMCD30; ~36 kDa; also called wild-type WzzBSF; source: S. flexneri RMA4053 (wzz::kan), from plasmid pRMCD30 (pQE30-based), IPTG-induced, in whole cells
B2: periplasmic domain of WzzBSF (residues 54-295) (domain or fragment)
chain: EKWTSTAIITQPDVGQIAGYNNAMNVIYGQAAPKVSDLQETLIGRFSSAFSALAETLDNQEEPEKLTIEPSVKNQQLPLTVSYVGQTAEGAQMKLAQYIQQVDDKVNQELEKDLKDNIALGRKNLQDSLRTQEVVAQEQKDLRIRQIQEALQYANQAQVTKPQVQQTEDVTQDTLFLLGSEALESMIKHEATRPLVFSPNYYQTRQNLLDIEKLKFDDLDIHAYRYVMKPTLPIRRDSPKKA
notes: WzzBSF (polysaccharide co-polymerase, O-antigen chain length regulator) of Shigella flexneri, periplasmic domain, residues 54-295; Cloned in pMCSG7 by ligation-independent cloning; also called wild-type WzzBSF periplasmic domain; source: E. coli BL21(DE3), autoinduction, purified (HisTrap, TEV cleavage, reverse HisTrap, Superdex 200 SEC); not shown: His6, N-terminal, cleaved
B3: periplasmic domain of WzzBSF A107P (residues 54-295) (domain or fragment)
chain: B2 chain with A54P
notes: WzzBSF of Shigella flexneri, periplasmic domain, residues 54-295, with the mutation A107P found by random mutagenesis; Same construct limits as m1 ('the equivalent construct containing the A107P mutation'); also called A107P mutant; source: E. coli BL21(DE3), autoinduction, purified (HisTrap, TEV cleavage, reverse HisTrap, Superdex 200 SEC); not shown: His6, N-terminal, cleaved

Key:
[1] = target: the molecule itself; assay: SDS-PAGE and immunoblot of non-cross-linked cells; whole S. flexneri cells incubated without formaldehyde (control), samples heated at 60°C for 5 min, 12% SDS-PAGE, immunoblot with anti-WzzBSF
[2] = target: the molecule itself; assay: crystal structure; hanging drop, 18°C, 0.1 M citric-acid/HEPES/CHES pH 7.3, 18% PEG 400, 18% PEG 8000, 0.1 M MgCl2; protein 12-13 mg/ml; open trimer in the crystal

Row | Protein | stoichiometry N [1] | stoichiometry N [2]
1 | B1 | 2 | 
2 | B2 |  | 3
3 | B3 |  | 3

From article PMC4574919, “Structural and Biochemical Analysis of a Single Amino-Acid Mutant of WzzBSF That Alters Lipopolysaccharide O-Antigen Chain Length in Shigella flexneri” (PLoS ONE, 2015)
